Laboratory results: paper PMC4488944

Assays:
Test in all cases: fluorescence polarisation
[1] = molecular target: fluorescent peptide corresponding to the SH3 binding motif of SepJ (Anabaena sp. strain PCC 7120)
[2] = molecular target: fluorescent peptide corresponding to the SH3 binding motif of FraC (Anabaena sp. strain PCC 7120)
[3] = molecular target: SepJ peptide bearing proline-to-serine substitutions (Anabaena sp. strain PCC 7120)

Question: With “His-tagged SjcF1 (All1861 without transmembrane domain) (domain or fragment)” as the substance, how does the Kd [1] read?
Answer: Its Kd is 39 µM.

Question: What about the Kd [2] of the same substance?
Answer: Its Kd is 12 µM.

Question: And the Kd [3]?
Answer: Its Kd is over 2000 µM.
